From PMC8473191

Experiments:
[1] = target: mMH1_02TE, H1 hemagglutinin ectodomain (A/Hawaii/70/2019) with cleavable foldon and histidine tag (influenza A virus A/Hawaii/70/2019 (H1) | not stated); assay: SEC-MALS
[2] = target: mMH3_02TE, H3 hemagglutinin ectodomain (A/Hong Kong/45/2019) with cleavable foldon and histidine tag (influenza A virus A/Hong Kong/45/2019 (H3) | not stated); assay: SEC-MALS

Substance	stoichiometry N [1]	stoichiometry N [2]
mMH1_02TE, H1 hemagglutinin ectodomain (A/Hawaii/70/2019) with cleavable foldon and histidine tag (domain or fragment)	3	–
mMH3_02TE, H3 hemagglutinin ectodomain (A/Hong Kong/45/2019) with cleavable foldon and histidine tag (domain or fragment)	–	3
